Two substances from patent publication US20060293221A1 can be followed below.

For test [1], the target named is Mucin I: Crude mucin, type II from porcine stomach (Sigma).
Test [2] shares this target. This is another data set of the same source.
Test [3] shares this target. This is another data set of the same source.

For “non-glycosylated recombinant human Asn99-TFF2 (from UniProt Q03403) (ligand)”, the viscosity, rheometer, comparison of four TFF2 peptides (7.05 mg in 2 ml 10% mucin I) in test [1] came to 0.54 Pa s.
Substance “glycosylated recombinant human Asn99-TFF2 (from UniProt Q03403) (ligand)” displayed a viscosity, rheometer, comparison of four TFF2 peptides (7.05 mg in 2 ml 10% mucin I) in test [1] of 0.8 Pa s. The viscosity, rheometer, constant rate (stress versus shear rate) in test [2] was found to be 10 factor. The Elastic modules G' (Pa) at 1 Hz, oscillatory measurement in test [3] amounted to 17 Pa.
